In the test the target is T1, GST-FD (Arabidopsis thaliana (Mouse-ear cress), UniProt Q84JK2).
T1 chain: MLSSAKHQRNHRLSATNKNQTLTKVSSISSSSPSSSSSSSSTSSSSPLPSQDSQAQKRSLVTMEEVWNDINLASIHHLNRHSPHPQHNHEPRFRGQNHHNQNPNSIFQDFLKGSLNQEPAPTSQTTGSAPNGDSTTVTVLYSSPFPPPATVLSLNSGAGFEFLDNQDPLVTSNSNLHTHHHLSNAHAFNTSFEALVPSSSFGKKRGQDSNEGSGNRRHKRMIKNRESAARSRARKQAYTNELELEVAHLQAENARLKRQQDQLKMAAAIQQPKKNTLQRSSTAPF
As to the kind of experiment: GST pull-down.

B1: Trx-His-CPK33 (protein)
chain: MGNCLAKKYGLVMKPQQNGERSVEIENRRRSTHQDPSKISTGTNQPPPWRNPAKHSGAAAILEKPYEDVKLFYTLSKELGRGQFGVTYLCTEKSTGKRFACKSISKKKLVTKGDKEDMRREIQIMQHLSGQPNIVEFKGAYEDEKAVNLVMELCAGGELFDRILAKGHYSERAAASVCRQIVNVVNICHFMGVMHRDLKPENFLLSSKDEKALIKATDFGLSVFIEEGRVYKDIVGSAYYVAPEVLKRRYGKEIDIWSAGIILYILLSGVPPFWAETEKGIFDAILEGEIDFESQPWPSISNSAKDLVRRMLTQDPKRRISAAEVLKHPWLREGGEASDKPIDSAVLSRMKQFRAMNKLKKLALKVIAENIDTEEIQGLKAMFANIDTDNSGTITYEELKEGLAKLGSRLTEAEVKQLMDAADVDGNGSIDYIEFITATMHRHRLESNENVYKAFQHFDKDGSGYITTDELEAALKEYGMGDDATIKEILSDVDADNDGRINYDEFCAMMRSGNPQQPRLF
In the case of B1, the binding result is reported as “binds”.

B2: Trx-His-CPK6 (protein)
chain: MGNSCRGSFKDKIYEGNHSRPEENSKSTTTTVSSVHSPTTDQDFSKQNTNPALVIPVKEPIMRRNVDNQSYYVLGHKTPNIRDLYTLSRKLGQGQFGTTYLCTDIATGVDYACKSISKRKLISKEDVEDVRREIQIMHHLAGHKNIVTIKGAYEDPLYVHIVMELCAGGELFDRIIHRGHYSERKAAELTKIIVGVVEACHSLGVMHRDLKPENFLLVNKDDDFSLKAIDFGLSVFFKPGQIFKDVVGSPYYVAPEVLLKHYGPEADVWTAGVILYILLSGVPPFWAETQQGIFDAVLKGYIDFDTDPWPVISDSAKDLIRKMLCSSPSERLTAHEVLRHPWICENGVAPDRALDPAVLSRLKQFSAMNKLKKMALKVIAESLSEEEIAGLRAMFEAMDTDNSGAITFDELKAGLRRYGSTLKDTEIRDLMEAADVDNSGTIDYSEFIAATIHLNKLEREEHLVSAFQYFDKDGSGYITIDELQQSCIEHGMTDVFLEDIIKEVDQDNDGRIDYEEFVAMMQKGNAGVGRRTMKNSLNISMRDV
B2: the binding result is listed as “binds”.

These data come from paper PMC4321167 (2015).
